assay: yeast display, Sf9 membrane polyspecificity reagent, FACS + sequencing; frameworks hold sequencing errors
Method in brief: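 After 36–48 hours of galactose induction, yeast (Saccharomyces cerevisiae BJ5465) displaying a synthetic nanobody library were stained at 4 °C for 1 hour with 10% biotinylated, detergent-solubilized Sf9 membrane reagent. Streptavidin microbeads enriched the stained cells before FACS sorting into low and high (top ~1%) gates on anti-HA and streptavidin fluorescence. Each clone's polyreactivity label reflects its gate of origin.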

Sequence	polyreactivity (PSR sort gate)
QVQLVESGGGLVQAGGSLRLSCAASGSTFGLYVMGWYRQAPGKERELVAAISWSGGSTYYADSVKGRFTISRDTAKNTVYLQMNSLKPEDTAVYYCAKVFRTYRYPYGYWGQGTQVTVSS	high polyreactivity
QVQLEESGGRLLQAGGSLRLSCAASGCTFGSYDMGLYRQAPGKERELVARISSDGSTNYADSVKGRFSISRDNAKNTVYLQMNSLKPEDTAGYYCARDRKRQADDIGEFDYWGQGSQVTVSS	low polyreactivity
QVQLVESGGGLVQAGGSLRLSCAASGSTFRHYAMGWYRQAPGKESELVAAISSTGGSTHNADSVKGRFTISRDNAKNTVFLQLHSLKPEDTAVDYCAARRLYWGQGTQVTVSS	high polyreactivity
QVQLVESGAGLVQAGGSLRLSCAASGRTLKTYVMGWYRQAPGKERELVAAITCGGRTYYADSVKGRFTISRDNAKNTVYLQMNSLKPEDTAVYYCNAQLYWYRYWYLFDNTSFDYWGQGTQVTVSS	low polyreactivity
QVQLVESGGGLVQAGGSLRLSCAASGSIFACYAMGRYRQAPGKERELVATITWSGGSTYYADSVKGRFTISRDNAKNTVYLQMNSLKPEDTAVYYCAAEVVGIWYDLWYQGDYWGQGTQVTVSS	low polyreactivity
QVQLVESGGGLVQAGGSLRLSCAASGRIFTHNTMGWYRQAPGKERELVAAISSSGGSTYYADSVKGRFTISRDNAKNTVYLQMNSLKPDDTAVYYCNTLIKGRWIVVGYGYPGYDYWGQGTQVTVSS	high polyreactivity
QVQLVESGGGLVQAGGSLRLSCAASGRIFSKYAMGWYRQAPGKEMELDAAITRSGGSTYYADSVKGRFTISRDNAKNTVYLQMNSLKPEDTAVYYCNAGTYSTSVPYRYNYWGQGTQVTVSS	high polyreactivity
QVQLGESGGGLVQAGGSLRLSCAASGSTFAYNDMGWYRQAPGKEMELVADIRSGGNTKYADSVKGRFTISRDNAKNTVYFQMNSLKPEDTAVYYCATDGYRIDVYHPDYRYDYWGQGTQVTVSS	low polyreactivity
QVQLVESGGGLVQAGGSLRLSCAASGSTFSWYAMGWYRQAPGKERELVAAISYSGGTYYADSVKGRFTISRDNEKNTVYLQMNSLKPEYNAVYYCAALRTRYGYDYWGQGTQVTLSS	high polyreactivity
QVQLVESGGGLVQAGGSLRLSCAASGSTFSSYAMAWYRQAPGKERELVAAISSVGVDTYYADSVKGRFTISRDNAKNTVYLQMISLKPEDTAVYYCAAGRYGWWRHYFVFKYDYWGQGTQVTVSS	low polyreactivity
QVQLVESGGGLVQAGGKLRLSCAASGSIFSDYTMGWYRQAPGKERELVAVITLSSGSTYYADSVKGRFTISRDNAKNTVYLQMNSLKPEDTAVYYCAADGWYYFGSGVFEYDYWGQGTQVTVSS	low polyreactivity
QVQLVESGGGLVQAGGSLRLSCAASGRIFDQNAMGWYRQAPGKERELVAAISSSGGRTYYADSVKGRFTISRDNAKNTVYLQMNSLKPEDTAVYYCAARYRFQRGGYYYWGQGTQVTVSS	high polyreactivity
QVQLVESGGGLVQAGGSLRLSCAASGNIFYVYAMGWYRQAPGKEREFVAAIRGSGGSTYYADSVKGRFTISRDNAKNTVYLQMNSLIQEDTAVYYCDAVAWEGSGSEMYSWGQGTQVTVSS	low polyreactivity
QVQLVESGGGLVQAGGRLRLSCAASGSTFVGNAMGWYRQAPGKERELVAAIRKSGGRTYYADSVKGRFTISRDNAKNTVYLQMNSLKPEDTEVYYCAVDRLLYYLIYYRAGVEGGYWGQGTQVTVSS	high polyreactivity
QVHLVESGGRLVQAGGSLRLSCAASGSTFTINVMGWYRQAPGKERELVADISWSGGSTYYADSVKGRFTISRDNAKNTVYSQMNSLYPVYTAVSYCATDGAYWTYYSWYDYWGQGTQVTVSS	low polyreactivity
QVQLVESGGGLVQAGGSLRLSCAASGRTFVYYAMGWYRQAPGKEREFVATITSSGGSTYYADSVKGRFTISRDNAKNTVYLQMNSLKPEDTAVYYCSASPYIRYSKVSKYYYWGQGTQVTVSS	high polyreactivity
QVQLVESGGGLVQAGGSLRLSCAASGSIFNQYPMGWYRQAPGKERELVAAISSGSTYYADSVKGRFIISRDNAKITVYLQMNSMKAEDTAVNNCAKDRHSPYWAMDYWGQGTQVTVSS	high polyreactivity

Source: the nanobody polyreactivity screen of Harvey et al. (2022)
